# According to article PMC11342335:
# Tests used:
# Experiment in all cases: SPR; Biacore 8K, affinity determination of second-generation constructs; 30-100 RU of ABD035-containing constructs captured on immobilised HSA (CM5); 1-200 nM human sortilin injected 180 s at 30 µl/min, 25°C, PBST; 60 min dissociation; 1:1 Langmuir fit; apparent constants; n=3 technical replicates
# [1] = biological target: A3-ABD (His6-A3-G4S-ABD035)
# [2] = biological target: ABD-A3-(G4S)3-NTC3 (His6-ABD035-G4S-A3-(G4S)3-NTC3)
# [3] = biological target: ABD-A3-(G4S)3-PGRNC3 (His6-ABD035-G4S-A3-(G4S)3-PGRNC3) (human)
# [4] = biological target: ABD-A3-(G4S)3-PGRNC6* (His6-ABD035-G4S-A3-(G4S)3-PGRNC6*) (human) (UniProt P28799)
# Sequence of human sortilin (R&D Systems, 3154-ST) (Q99523 78-755): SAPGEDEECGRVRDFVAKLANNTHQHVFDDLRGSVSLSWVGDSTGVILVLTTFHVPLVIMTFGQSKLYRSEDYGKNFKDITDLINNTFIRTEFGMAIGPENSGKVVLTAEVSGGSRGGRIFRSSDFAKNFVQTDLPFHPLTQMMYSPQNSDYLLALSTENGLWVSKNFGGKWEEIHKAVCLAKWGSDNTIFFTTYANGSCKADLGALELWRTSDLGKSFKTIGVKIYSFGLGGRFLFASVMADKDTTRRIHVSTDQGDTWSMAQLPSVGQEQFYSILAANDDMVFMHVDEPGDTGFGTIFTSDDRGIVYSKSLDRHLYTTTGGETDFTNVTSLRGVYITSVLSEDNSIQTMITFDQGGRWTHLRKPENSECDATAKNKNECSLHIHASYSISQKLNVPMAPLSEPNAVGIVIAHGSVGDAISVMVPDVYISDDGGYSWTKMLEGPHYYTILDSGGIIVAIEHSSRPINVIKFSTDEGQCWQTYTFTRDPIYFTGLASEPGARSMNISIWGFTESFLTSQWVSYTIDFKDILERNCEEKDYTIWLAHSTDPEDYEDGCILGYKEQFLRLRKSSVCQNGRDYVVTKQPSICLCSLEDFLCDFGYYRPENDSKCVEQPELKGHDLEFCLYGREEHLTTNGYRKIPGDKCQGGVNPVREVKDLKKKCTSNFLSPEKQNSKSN
substance,measurement,setting,value
"human sortilin (R&D Systems, 3154-ST) (from UniProt Q99523 78-755) (receptor)",Kd,[1],70.4 nM
same,Kd,[2],0.303 nM
same,Kd,[3],0.31 nM
same,Kd,[4],0.319 nM
